The record followed here is patent US20020103133.

In data set [1] the target is T1, succinyl-P-L-G-Hof-Y-L-Dox.
T1 chain: XLGXYL

The target in data set [2] is T2, acetyl-P-L-G-L-L-S-L-Dox.
T2 chain: XLGLLSL

The target in data set [3] is T3, acetyl-P-L-G-L-L-A-L-Dox.
T3 chain: XLGLLAL

The target in data set [4] is T4, acetyl-P-L-G-L-L-Dox.
T4 chain: XLGLL

Data set [5] addresses T5, acetyl-G-P-L-G-L-L-Dox.
T5 chain: XPLGLL

For data set [6], the target named is T6, acetyl-P-L-G-Hof-Y-L-Dox.
T6 chain: XLGXYL

For data set [7], the target named is T7, acetyl-G-P-L-G-L-Y-Dox.
T7 chain: XPLGLY

Data set [8] addresses T8, acetyl-P-L-G-L-A-A-L-Dox.
T8 chain: XLGLAAL

Data set [9] addresses T9, acetyl-P-L-G-L-Y-L-Dox.
T9 chain: XLGLYL

The target in data set [10] is T10, acetyl-P-L-G-Hof-Orn-L-Dox.
T10 chain: XLGXXL

In data set [11] the target is T11, acetyl-P-L-G-L-A-L-Dox.
T11 chain: XLGLAL

The target in data set [12] is T12, acetyl-G-P-L-G-L-A-L-Dox.
T12 chain: XPLGLAL

Data set [13] has as its target T13, acetyl-P-L-G-L-Y-A-L-Dox.
T13 chain: XLGLYAL

B1: MMP-2 (protein)
chain: YNFFPRKPKWDKNQITYRIIGYTPDLDPETVDDAFARAFQVWSDVTPLRFSRIHDGEADIMINFGRWEHGDGYPFDGKDGLLAHAFAPGTGVGGDSHFDDDELWTLGEGQVVRVKYGNADGEYCKFPFLFNGKEYNSCTDTGRSDGFLWCSTTYNFEKDGKYGFCPHEALFTMGGNAEGQPCKFPFRFQGTSYDSCTTEGRTDGYRWCGTTEDYDRDKKYGFCPETAMSTVGGNSEGAPCVFPFTFLGNKYESCTSAGRSDGKMWCATTANYDDDRKWGFCPDQGYSLFLVAAHEFGHAMGLEHSQDPGALMAPIYTYTKNFRLSQDDIKGIQELYGASPDIDLGTGPTPTLGPVTPEICKQDIVFDGIAQIRGEIFFFKDRFIWRTVTPRDKPMGPLLVATFWPELPEKIDAVYEAPQEEKAVFFAGNEYWIYSASTLERGYPKPLTSLGLPPDVQRVDAAFNWSKNKKTYIFAGDKFWRYNEVKKKMDPGFPKLIADAWNAIPDNLDAVVDLQGGGHSYFFKGAYYLKLENQSLKSVKFGSIKSDWLGC
With B1, the kcat/Km (cleavage of conjugate, HPLC) was over 1.2e+08 M⁻¹ s⁻¹ in [1]; 1.03e+08 M⁻¹ s⁻¹ in data set [2]; 6.3e+07 M⁻¹ s⁻¹ in [3]; 1.8e+07 M⁻¹ s⁻¹ in data set [4]; 3e+07 M⁻¹ s⁻¹ in data set [5]; over 1.2e+08 M⁻¹ s⁻¹ in [6]. The kcat/Km (cleavage of conjugate, HPLC) in data set [7] stood at 4e+07 M⁻¹ s⁻¹; in data set [8], 1.1e+08 M⁻¹ s⁻¹; in [9], 8.8e+07 M⁻¹ s⁻¹; in [10], 1.36e+08 M⁻¹ s⁻¹; in data set [11], 5.3e+07 M⁻¹ s⁻¹; in [12], 8.6e+07 M⁻¹ s⁻¹. For the same protein, in data set [13], the kcat/Km (cleavage of conjugate, HPLC) turned out to be 1.9e+08 M⁻¹ s⁻¹.

B2: Neprilysin (protein)
chain: YDDGICKSSDCIKSAARLIQNMDATTEPCTDFFKYACGGWLKRNVIPETSSRYGNFDILRDELEVVLKDVLQEPKTEDIVAVQKAKALYRSCINESAIDSRGGEPLLKLLPDIYGWPVATENWEQKYGASWTAEKAIAQLNSKYGKKVLINLFVGTDDKNSVNHVIHIDQPRLGLPSRDYYECTGIYKEACTAYVDFMISVARLIRQEERLPIDENQLALEMNKVMELEKEIANATAKPEDRNDPMLLYNKMTLAQIQNNFSLEINGKPFSWLNFTNEIMSTVNISITNEEDVVVYAPEYLTKLKPILTKYSARDLQNLMSWRFIMDLVSSLSRTYKESRNAFRKALYGTTSETATWRRCANYVNGNMENAVGRLYVEAAFAGESKHVVEDLIAQIREVFIQTLDDLTWMDAETKKRAEEKALAIKERIGYPDDIVSNDNKLNNEYLELNYKEDEYFENIIQNLKFSQSKQLKKLREKVDKDEWISGAAVVNAFYSSGRNQIVFPAGILQPPFFSAQQSNSLNYGGIGMVIGHEITHGFDDNGRNFNKDGDLVDWWTQQSASNFKEQSQCMVYQYGNFSWDLAGGQHLNGINTLGENIADNGGLGQAYRAYQNYIKKNGEEKLLPGLDLNHKQLFFLNFAQVWCGTYRPEYAVNSIKTDVHSPGNFRIIGTLQNSAEFSEAFHCRKNSYMNPEKKCRVW
On to B2, for which the kcat/Km (cleavage of conjugate, HPLC) in data set [1] was under 1e+06 M⁻¹ s⁻¹; in data set [2], 8.2e+07 M⁻¹ s⁻¹; in data set [3], 1e+08 M⁻¹ s⁻¹; in data set [4] it was 2.2e+07 M⁻¹ s⁻¹; in data set [5], 2e+07 M⁻¹ s⁻¹; in data set [6], under 1e+06 M⁻¹ s⁻¹. The kcat/Km (cleavage of conjugate, HPLC) in data set [7] is 1.9e+07 M⁻¹ s⁻¹; in [8] it was 1.2e+08 M⁻¹ s⁻¹; in data set [9], 2.2e+07 M⁻¹ s⁻¹; in [10], under 1e+06 M⁻¹ s⁻¹; in data set [11] it was 4.9e+07 M⁻¹ s⁻¹; in [12] it was 4.2e+07 M⁻¹ s⁻¹. Besides, in data set [13], the kcat/Km (cleavage of conjugate, HPLC) turned out to be 3.88e+08 M⁻¹ s⁻¹.
